Laboratory results as given in patent US20040053329A1 (published 2004).

Biological target: T1, endoglin (CD105) of human endothelial cells (HUVEC and other endothelial cells) (human, UniProt P17813 26-658)
T1 construct: whole, on cells; In the immunoprecipitation the protein came from a non-denaturing lysate of 35S-methionine-labelled HUVEC; In immunofluorescence and flow cytometry it was on cells; also called endoglin-expressing HUVEC; endoglin-expressing endothelial cells
T1 sequence (looked up): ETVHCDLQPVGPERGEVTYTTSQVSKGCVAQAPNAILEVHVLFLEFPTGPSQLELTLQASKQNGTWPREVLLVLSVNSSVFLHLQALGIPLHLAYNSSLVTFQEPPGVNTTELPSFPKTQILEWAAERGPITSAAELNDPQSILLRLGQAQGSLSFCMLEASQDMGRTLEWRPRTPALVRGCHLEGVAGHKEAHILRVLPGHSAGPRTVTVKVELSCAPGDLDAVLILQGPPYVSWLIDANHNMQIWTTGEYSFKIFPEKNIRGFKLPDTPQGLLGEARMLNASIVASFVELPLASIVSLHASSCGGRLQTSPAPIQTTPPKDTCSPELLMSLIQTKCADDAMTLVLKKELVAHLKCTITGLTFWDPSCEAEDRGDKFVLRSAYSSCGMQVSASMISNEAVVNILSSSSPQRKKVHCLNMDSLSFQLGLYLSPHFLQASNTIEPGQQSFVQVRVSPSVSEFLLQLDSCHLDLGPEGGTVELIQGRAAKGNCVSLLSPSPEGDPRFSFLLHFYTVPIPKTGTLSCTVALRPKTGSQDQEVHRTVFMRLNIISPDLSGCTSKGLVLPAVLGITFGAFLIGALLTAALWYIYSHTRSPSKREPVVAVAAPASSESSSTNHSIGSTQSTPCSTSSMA
Assay: immunoprecipitation from non-denaturing lysate of 35S-methionine-labelled HUVEC
Procedure: Endoglin from primary human umbilical cord endothelial cells (HUVEC) was detected by means of immunoprecipitation under non-denaturing conditions. For this purpose, the [³⁵S]-methionine-labelled endothelial cells were lysed with lysing buffer (10 mM Tris-HCl pH 7.5, 150 mM NaCl, 1% sodium deoxycholate, 1% Nonidet P40) for 30 min at 4° C. […] The complexes were washed several times with lysing buffer and finally resuspended in 20 μL SDS-PAGE charge buffer. After separation in the SDS-polyacrylamide gel, the gel was immobilised for 30 min in 30% methanol and 10% acetic acid and subsequently mixed with amplification solution (Amersham-Buchler). The gel was dried and exposed with an x-ray film.

B1: scFv C4 (anti-endoglin polypeptide C4 in the form of an scFv fragment) (scFv, not shown: small tags and cut ends)
scFv: AQVQLVQSGAEVKKPGATVKISCKVSGYTFTDYYMHWVQQAPGKGLEWMGLVDPEDGETIYAEKFQGRVTITADTSTDTAYMELSSLRSEDTAVYYCARRTTHGPDPHWGQGTLVTVSSGGGGSGGGGSGGSALDIQLTQSPSSLSASVGDRVTITCRASQSISSYLNWYQRKPGKAPKLLIYAASSLQSGVPSRFSGSGSGTDFTLTISSLQPEDFATYYCQQSYSTRTFGQGTKLEIKR
notes: also called polypeptide scFv C4; anti-endoglin-antibody
  binding result: binds
